For the assay, the target named is F-actin (filamentous rabbit skeletal muscle actin) (rabbit, UniProt P68135 1-377). Put plainly: co-sedimentation.

B1: UTR261^T36C/S242C, oxidised (intra-chain disulphide, locked closed) (domain or fragment)
chain: MAKYGEHEASPDNGQNEFSDIIKSRSDEHNDVQKKCFTKWINARFSKSGKPPINDMFTDLKDGRKLLDLLEGLTGTSLPKERGSTRVHALNNVNRVLQVLHQNNVELVNIGGTDIVDGNHKLTLGLLWSIILHWQVKDVMKDVMSDLQQTNSEKILLSWVRQTTRPYSQVNVLNFTTSWTDGLAFNAVLHRHKPDLFSWDKVVKMSPIERLEHAFSKAQTYLGIEKLLDPEDVAVQLPDKKCIIMYLTSLFEVLPQQVTID
modifications: intra-chain disulphide between the engineered cysteines C36 and C242
B1 yielded a Kd of 123 ± 14 µM.

B2: UTR261^T36C/S242C, reduced (domain or fragment)
chain: B1 chain
Turning to B2, the Kd stood at 74.8 ± 19 µM.

A word on the Kd: it is the free concentration of one partner at which half of the binding sites on the other are occupied at equilibrium, for simple one-to-one binding.

The values are drawn from publication PMC3642092 (FEBS Open Bio, 2012).
